Measured values published in PMC8008340 (Cell, 2021).

Target: T1, WT RBD (Wuhan SARS-CoV-2 RBD) (Severe acute respiratory syndrome …, UniProt P0DTC2)
T1 construct: also called Wuhan RBD; native RBD
Test: crystal structure
Details: both partners purified

B1: EY6A Fab (Fab, V domains shown)
VH: EVQLVESGGGVVQPGRSLRLSCAASAFTFSSYDMHWVRQAPGKGLEWVAVISYDGSNKYYADSVKGRFTISRDNSKNTLYLQMNSLRAEDTAVYYCAKDGGKLWVYYFDYWGQGTLVTVSS
VL: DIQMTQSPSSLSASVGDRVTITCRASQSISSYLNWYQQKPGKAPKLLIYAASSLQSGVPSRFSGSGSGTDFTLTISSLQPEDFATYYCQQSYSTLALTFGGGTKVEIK
- binding result: binds
